Measurements: PMC2377097

Target: Unc45b^Flag, bacteria expressed and purified (mouse) (UniProt Q8CGY6)
Test: pull-down; apparent; skeletal MD::GFP synthesized in the coupled assay, incubated with 0-2000 nM Unc45b^Flag 1 hr at 25°C, then anti-Flag beads 1 hr at 25°C; silver stain and autoradiography

Sequence of Unc45b^Flag, bacteria expressed and purified (mouse) (Q8CGY6 whole entry): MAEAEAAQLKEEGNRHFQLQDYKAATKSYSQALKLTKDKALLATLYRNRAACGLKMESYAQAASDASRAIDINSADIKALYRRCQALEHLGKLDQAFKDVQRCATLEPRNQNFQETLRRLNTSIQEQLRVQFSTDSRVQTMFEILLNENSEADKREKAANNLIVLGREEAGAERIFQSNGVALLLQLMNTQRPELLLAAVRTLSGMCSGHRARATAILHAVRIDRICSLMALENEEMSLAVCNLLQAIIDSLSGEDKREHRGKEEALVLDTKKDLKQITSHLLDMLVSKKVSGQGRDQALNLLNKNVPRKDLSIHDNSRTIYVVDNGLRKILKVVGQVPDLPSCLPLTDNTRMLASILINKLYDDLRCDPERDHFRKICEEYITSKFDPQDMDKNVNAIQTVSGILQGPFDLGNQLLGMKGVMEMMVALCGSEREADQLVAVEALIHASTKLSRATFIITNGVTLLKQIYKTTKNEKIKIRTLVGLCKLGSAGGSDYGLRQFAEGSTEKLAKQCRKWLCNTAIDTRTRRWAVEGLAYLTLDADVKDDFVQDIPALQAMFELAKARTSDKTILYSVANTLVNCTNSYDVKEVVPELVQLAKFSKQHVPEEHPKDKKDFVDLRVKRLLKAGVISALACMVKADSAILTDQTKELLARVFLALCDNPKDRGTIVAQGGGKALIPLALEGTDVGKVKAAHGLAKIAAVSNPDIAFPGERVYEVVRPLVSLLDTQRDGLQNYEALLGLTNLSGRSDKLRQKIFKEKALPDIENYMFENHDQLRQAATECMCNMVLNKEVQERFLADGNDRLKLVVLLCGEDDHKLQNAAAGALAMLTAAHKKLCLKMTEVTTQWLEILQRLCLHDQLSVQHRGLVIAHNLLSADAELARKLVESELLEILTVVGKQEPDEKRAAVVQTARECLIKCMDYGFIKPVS

Kd: 510 nM
Substance: skeletal muscle MD::GFP chimera (Sk795GFP) (domain or fragment)
